In US20200347136A1, “CONSTRAINED CYCLIC PEPTIDES AS INHIBITORS OF THE CD2:CD58 PROTEIN-PROTEIN INTERACTION FOR TREATMENT OF DISEASES AND AUTOIMMUNE DISORDERS” (Board of Supervisors for the University of Louisiana System, priority 2019, published 2020):

Key:
[1] = target: CD58 expressed on OVCAR-3 and HFLS-RA cells (human) (UniProt P19256); test: cell adhesion inhibition (Jurkat CD2 / CD58 cells); HFLS-RA cells
[2] = target: CD58 expressed on OVCAR-3 and HFLS-RA cells (human) (UniProt P19256); test: cell adhesion inhibition (Jurkat CD2 / CD58 cells); OVCAR-3 cells

Sequence of CD58 expressed on OVCAR-3 and HFLS-RA cells (human) (P19256 29-250): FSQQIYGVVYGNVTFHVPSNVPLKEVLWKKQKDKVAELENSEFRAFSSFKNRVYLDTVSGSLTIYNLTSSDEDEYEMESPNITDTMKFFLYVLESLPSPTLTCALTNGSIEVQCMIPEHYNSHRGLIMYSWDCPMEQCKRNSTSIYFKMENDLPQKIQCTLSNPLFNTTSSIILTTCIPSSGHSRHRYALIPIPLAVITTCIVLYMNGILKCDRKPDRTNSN

| IC50 [1] | IC50 [2] | Substance |
| --- | --- | --- |
| > 100 µM | > 100 µM | Control |
| > 50 µM | > 50 µM | SFTI-wt (control) |
